± gives the standard error. For part of these data: Variants at the floor of the assay were thinned out.
B1: glmS ribozyme (parent)
chain: AUAAAAGCGCCAGAACUACAGAAAUGUAGUUGACGAGGAGGAGGUUUAUCGAAUUUUCGGCGGAUGCCUCCAAA

Variants of: B1
Experiment: self-cleavage kobs at 40 uM GlcN6P; higher = faster cleavage; RNA array
Settings: with glucosamine-6-phosphate
Method in brief: (§1)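 In situ transcription by E. coli RNA polymerase produced barcoded ribozyme variants on sequenced MiSeq chips, and a hybridised Cy3 probe tracked them at 37 °C. Glucosamine-6-phosphate was flowed in at 40 μM to 10 mM in HEPES/KCl/Mg(OAc)2 buffer. kcat and KM were taken from weighted Michaelis–Menten fits of kobs values from exponential decay fits.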

| Variant | self-cleavage kobs at 40 uM GlcN6P |
| --- | --- |
| CAUAAAAGCGCCAGACUACAGAAAUGUAGUUGACGAGGAGGAGGUUUAUCGAAUUUUCGGCGGAUGCCUCCAAA [A1C U2A A3U G7A C8G G9C C10G A12C G13A A14G] | 6.43e-05 ± 1.4e-05 s⁻¹ |
| AUAAACGCGCCAGCACUACAGAAAUGUAGUGGACGAGGAGGAGGUUUGUCUAAUUUUUGGAGGAUGCCUCCAAA [A6C A14C U31G A48G G51U C58U C61A] | 8.19e-05 ± 3.4e-05 s⁻¹ |
| AUAAUCGCGCCGGAACUACAGAAAUGUAGUUAACGAGGAGGAGGUUUAUCUAAUUUUCGGCGGAUGCCUCCAAA [A5U A6C A12G G32A G51U] | < 1e-05 s⁻¹ |
| UGGAUCCAGCCAGAACUACAGAAAUGUACUUUACGAGGAGGAGGUUUAUCGAAUUUUCGUCGGAUGCCUCCAAA [A1U U2G A3G A5U A6C G7C C8A G29C G32U G60U] | < 1e-05 s⁻¹ |
| AUAAACGCGCCGGAACUACAGAAAUGUAGUUGACGAGGAGGAGGUUUAUCGAAUUUUCGGCGGAUGCCGCCAAA [A6C A12G U69G] | < 1e-05 s⁻¹ |
| AUAAACGCGCCAGCACUACAGAAAUGUAGUUGACGCCGAUGAGGUUUAUCGAAUUUUCGGCGGAUCGCUCCAAA [A6C A14C A36C G37C G40U G66C C67G] | < 1e-05 s⁻¹ |
| AUAAACGCGCCAGAUCUACAGAAAUGUAGUUGACGAGGAAGAGGUUUAUCGAAUUUUCGGCGGAUGCCUCCAAA [A6C A15U G40A] | < 1e-05 s⁻¹ |
| AUAAAAGCGCCAGAACUACAGAAAUGUAGUAGACGAGGAGGAGGAUUAUCGAAUUUUCGGCGGAUGCCUCCAAA [U31A U45A] | 0.000743 ± 0.0001 s⁻¹ |
| AUAAAAGCGCCAGGACUACAGAAAUGUAGUCGACGAGGAGGAGGUUUAUCGAAUUUUCGGCGGAUGCCUCCAAA [A14G U31C] | 0.0012 ± 0.00019 s⁻¹ |

Variants of: B1
Experiment: self-cleavage kobs at 10000 uM GlcN6P; higher = faster cleavage; RNA array
Settings: with glucosamine-6-phosphate
Method in brief: as §1

| Variant | self-cleavage kobs at 10000 uM GlcN6P |
| --- | --- |
| CAUAAAAGCGCCAGACUACAGAAAUGUAGUUGACGAGGAGGAGGUUUAUCGAAUUUUCGGCGGAUGCCUCCAAA [A1C U2A A3U G7A C8G G9C C10G A12C G13A A14G] | 0.00344 ± 0.00044 s⁻¹ |
| AUAAUCGCGCCGGAACUACAGAAAUGUAGUUAACGAGGAGGAGGUUUAUCUAAUUUUCGGCGGAUGCCUCCAAA [A5U A6C A12G G32A G51U] | < 1e-05 s⁻¹ |
| AUAAACGCGCCGGAACUACAGAAAUGUAGUUGACGAGGAGGAGGUUUAUCGAAUUUUCGGCGGAUGCCGCCAAA [A6C A12G U69G] | < 1e-05 s⁻¹ |
| AUAAACGCGCCAGAUCUACAGAAAUGUAGUUGACGAGGAAGAGGUUUAUCGAAUUUUCGGCGGAUGCCUCCAAA [A6C A15U G40A] | < 1e-05 s⁻¹ |
| AUAAAAGCGCCAGAACUACAGAAAUGUAGUAGACGAGGAGGAGGAUUAUCGAAUUUUCGGCGGAUGCCUCCAAA [U31A U45A] | 0.0333 ± 0.01 s⁻¹ |
| AUAAAAGCGCCAGGACUACAGAAAUGUAGUCGACGAGGAGGAGGUUUAUCGAAUUUUCGGCGGAUGCCUCCAAA [A14G U31C] | 0.05 ± 0.013 s⁻¹ |

Variants of: B1
Experiment: KM; higher = weaker cofactor use; RNA array
Settings: with glucosamine-6-phosphate
Method in brief: as §1

| Variant | KM |
| --- | --- |
| AUAAAAGCGCAAGAACUACAGAAAUGUAGUUGUCGAGGAGGAGGUUUAUCGAAUUUUCGGCGGAUGCCUCCAAA [C11A A33U] | 983 ± 40 µM |
| AUAAAAGCGCCAGAACUACAGAAAUGUAGUUGGCGAGUAGGAGGUUUAUCGAAUUUUCGGCGGAUGCCUCCAAA [A33G G38U] | 47.2 ± 22 µM |
| AUAAAAGCGCCAGAACUACAGAAAUGUAGUUGACGAGGAAGAGGUUUAUCGAAUUUUCAGCGGAUGCCUCCAAA [G40A G59A] | 1080 ± 65 µM |
| AUAAAAGCGCCAGAACUACAGAAAUGUAGUUGACGAGGUGGAGGUUUAUCGCAUUUUCGGCGGAUGCCUCCAAA [A39U A52C] | 2300 ± 420 µM |
| AUAAAAGCGCCAGAACUACAGAAAUGUAGUUGACGCGGAGGAGGUUUAUCUAAUUUUCGGCGGAUGCCUCCAAA [A36C G51U] | 10.4 ± 3.3 µM |
| AUAAAAACGCCAGAAAUACAGAAAUGUAGUUGACGAGGAGGAGGUUUAUCGAAUUUUCGGCGGAUGCCUCCAAA [G7A C16A] | 275 ± 120 µM |
| AUAAAAGCGCCAGAACUACAGAAAUGUAGUUGACGACGAUGAGGUUUAUCGAAUUUUCGGCGGAUGCCUCCAAA [G37C G40U] | 5820 ± 2300 µM |
| AUAAAAGCGCCAGAACUACAGAAAUGUAUUUGACGAGGAGGAGGUUUAUCUAAUUUUCGGCGGAUGCCUCCAAA [G29U G51U] | 40.3 ± 12 µM |
| AUAAAAGCGCCAGAACUACAGAAAUGUAGUUGACUAGGAGGAGGUUUAUCUAAUUUUCGGCGGAUGCCUCCAAA [G35U G51U] | 31.5 ± 11 µM |
| AUAAAAGCGCCAGAACUACAGAAAUGUAGUAGACGAGGAGGAGGAUUAUCGAAUUUUCGGCGGAUGCCUCCAAA [U31A U45A] | 813 ± 360 µM |
| AUAAAAGCGCCAGAACUACAGAAAUGUAGUUGACGAGGAUGAGGUUUAUCGAAUUUUGGGCGGAUGCCUCCAAA [G40U C58G] | 4730 ± 1300 µM |
| AUAAAAGCGCCAGGACUACAGAAAUGUAGUCGACGAGGAGGAGGUUUAUCGAAUUUUCGGCGGAUGCCUCCAAA [A14G U31C] | 891 ± 450 µM |

Variants of: B1
Experiment: self-cleavage kobs at 160 uM GlcN6P; higher = faster cleavage; RNA array
Settings: with glucosamine-6-phosphate
Method in brief: as §1

| Variant | self-cleavage kobs at 160 uM GlcN6P |
| --- | --- |
| AUAAACGCGCCGGAACUACAGAAAUGUAGUUGACGAGGAGGAGGUUUAUCGAAUUUUCGGCGGAUGCCGCCAAA [A6C A12G U69G] | < 1e-05 s⁻¹ |
| AUAAAAGCGCCAGAACUACAGAAAUGUAGUAGACGAGGAGGAGGAUUAUCGAAUUUUCGGCGGAUGCCUCCAAA [U31A U45A] | 0.00207 ± 0.00071 s⁻¹ |
| AUAAAAGCGCCAGGACUACAGAAAUGUAGUCGACGAGGAGGAGGUUUAUCGAAUUUUCGGCGGAUGCCUCCAAA [A14G U31C] | 0.00337 ± 0.00062 s⁻¹ |

Variants of: B1
Experiment: self-cleavage kobs at 640 uM GlcN6P; higher = faster cleavage; RNA array
Settings: with glucosamine-6-phosphate
Method in brief: as §1

| Variant | self-cleavage kobs at 640 uM GlcN6P |
| --- | --- |
| AUAAACGCGCCAGCACUACAGAAAUGUAGUUGACGCCGAUGAGGUUUAUCGAAUUUUCGGCGGAUCGCUCCAAA [A6C A14C A36C G37C G40U G66C C67G] | < 1e-05 s⁻¹ |
| AUAAAAGCGCCAGAACUACAGAAAUGUAGUAGACGAGGAGGAGGAUUAUCGAAUUUUCGGCGGAUGCCUCCAAA [U31A U45A] | 0.00537 ± 0.0013 s⁻¹ |
| AUAAAAGCGCCAGGACUACAGAAAUGUAGUCGACGAGGAGGAGGUUUAUCGAAUUUUCGGCGGAUGCCUCCAAA [A14G U31C] | 0.00963 ± 0.0011 s⁻¹ |

Variants of: B1
Experiment: self-cleavage kobs at 2500 uM GlcN6P; higher = faster cleavage; RNA array
Settings: with glucosamine-6-phosphate
Method in brief: as §1

| Variant | self-cleavage kobs at 2500 uM GlcN6P |
| --- | --- |
| AUAAACGCGCCAGAUCUACAGAAAUGUAGUUGACGAGGAAGAGGUUUAUCGAAUUUUCGGCGGAUGCCUCCAAA [A6C A15U G40A] | < 1e-05 s⁻¹ |
| AUAAAAGCGCCAGAACUACAGAAAUGUAGUAGACGAGGAGGAGGAUUAUCGAAUUUUCGGCGGAUGCCUCCAAA [U31A U45A] | 0.0106 ± 0.0024 s⁻¹ |
| AUAAAAGCGCCAGGACUACAGAAAUGUAGUCGACGAGGAGGAGGUUUAUCGAAUUUUCGGCGGAUGCCUCCAAA [A14G U31C] | 0.0154 ± 0.0043 s⁻¹ |
